Reference: patent EP2164866B1

Biological target: epidermal growth factor receptor (EGFR) on EGFR positive U87 cells (UniProt P00533)
Assay: FACS saturation binding to EGFR receptor

Row | Substance | Half saturation [nM] | Bmax (RFU)
1 | Anti-EGFR-Angiopep-2 conjugate (EGFR antibody monoclonal 528 cross-linked to Angiopep-2 with SATA) | 1.8 | –
2 | EGFR antibody (monoclonal 528 available from ATCC) | 1.7 | 23.6
